Source: paper PMC5430550 (Scientific Reports, 2017)
Substitutions are numbered along the chain they refer to. Names may count otherwise.

Key:
[1] = target: RlmH (ribosomal large-subunit methyltransferase H) (Escherichia coli, UniProt P0A8I8, E138A); assay: isothermal titration calorimetry, sequential binding model; details: 50 mM sodium phosphate pH 6.8, 200 mM KCl, 5% glycerol, 1 mM β-mercaptoethanol, 25 °C; first SAM site of the dimer; read-out: Calculated K D1
Description: (§1) isothermal titration calorimetry, sequential binding model on RlmH (ribosomal large-subunit methyltransferase H)

[2] = target: RlmH (ribosomal large-subunit methyltransferase H) (Escherichia coli, UniProt P0A8I8, E138Q); assay: as above; details: 50 mM sodium phosphate pH 6.8, 200 mM KCl, 5% glycerol, 1 mM β-mercaptoethanol, 25 °C; first SAM site of the dimer; read-out: Calculated K D1
RlmH (ribosomal large-subunit methyltransferase H) (Escherichia coli, UniProt P0A8I8, E138Q), sequence (P0A8I8 2-155 E138Q): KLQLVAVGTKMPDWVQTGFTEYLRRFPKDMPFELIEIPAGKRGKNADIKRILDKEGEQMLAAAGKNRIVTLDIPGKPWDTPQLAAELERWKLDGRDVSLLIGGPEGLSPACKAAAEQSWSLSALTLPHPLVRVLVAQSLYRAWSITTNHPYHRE
Description: as §1

[3] = target: T1, RlmH (ribosomal large-subunit methyltransferase H) (Escherichia coli, UniProt P0A8I8); assay: as above; details: 50 mM sodium phosphate pH 6.8, 200 mM KCl, 5% glycerol, 1 mM β-mercaptoethanol, 25 °C; first SAM site of the dimer; read-out: Calculated K D1
T1 construct: full length (155 residues, ~17 kDa), first Met replaced by MHHHHHHV (N-terminal His6 tag kept), expressed in E. coli BLR(DE3), homodimer
Description: as §1

[4] = target: T1, RlmH (ribosomal large-subunit methyltransferase H); assay: X-ray crystal structure, […] Å; details: co-crystallised with 2 mM sinefungin, pH 8.5, 16 °C; SAM-binding pocket, two ligands per dimer
[5] = test system: RlmH E138A (Escherichia coli (ASKA clone JW0631)); assay: competition; details: pseudouridine 1915 lacking N3-methylation (delta-rlmH), Single-turnover competitive methylation assay, mutant pre-incubated with heat-activated 70S ribosomes 20 min at 25 C before wild-type RlmH-[3H]SAM
[6] = test system: RlmH Y152F (Escherichia coli (ASKA clone JW0631)); assay: competition; details: pseudouridine 1915 lacking N3-methylation (delta-rlmH), Single-turnover competitive methylation assay, mutant pre-incubated with heat-activated 70S ribosomes 20 min at 25 C before wild-type RlmH-[3H]SAM
[7] = test system: RlmH H153F (Escherichia coli (ASKA clone JW0631)); assay: competition; details: pseudouridine 1915 lacking N3-methylation (delta-rlmH), Single-turnover competitive methylation assay, mutant pre-incubated with heat-activated 70S ribosomes 20 min at 25 C before wild-type RlmH-[3H]SAM
[8] = test system: RlmH R154A (Escherichia coli (ASKA clone JW0631)); assay: competition; details: pseudouridine 1915 lacking N3-methylation (delta-rlmH), Single-turnover competitive methylation assay, mutant pre-incubated with heat-activated 70S ribosomes 20 min at 25 C before wild-type RlmH-[3H]SAM
[9] = test system: RlmH E138Q (Escherichia coli (ASKA clone JW0631)); assay: competition; details: pseudouridine 1915 lacking N3-methylation (delta-rlmH), Single-turnover competitive methylation assay, mutant pre-incubated with heat-activated 70S ribosomes 20 min at 25 C before wild-type RlmH-[3H]SAM
[10] = target: the molecule itself; assay: SEC-MALS; Superdex S-200 HR10/30; 50 mM potassium phosphate pH 7.0, 300 mM KCl, 2 mM DTT, 5% glycerol; dialyzed protein injected at ~20 and ~200 µM (0.35 mg/ml and 3.85 mg/ml); same result at both

RlmH (ribosomal large-subunit methyltransferase H) (Escherichia coli, UniProt P0A8I8, E138A), sequence (P0A8I8 2-155 E138A): as the sequence (P0A8I8 2-155 E138Q) above, with Q137A counted along it

`C[S+](CC[C@H](N)C(=O)O)C[C@H]1O[C@@H](n2cnc3c(N)ncnc32)[C@H](O)[C@@H]1O` (stereo partly shown) [SAM, S-adenosyl-methionine] gave a Kd [1] of 6.7 ± 0.77 µM, a Kd [2] of 7.05 ± 0.56 µM and a Kd [3] of 5.58 ± 0.31 µM.

In the case of `Nc1ncnc2c1ncn2[C@@H]1O[C@H](C[C@@H](N)CC[C@H](N)C(=O)O)[C@@H](O)[C@H]1O` [SFG, sinefungin], the “X-ray crystal structure, 2.1 Å” value [4] is reported as “crystal structures of E. coli RlmH bound to the cofactor SAM or to the inhibitor sinefungin”.

In the case of “delta-rlmH 70S ribosome (23S rRNA helix 69, pseudouridine 1915)”, the IC50 [5] is reported as 3000 nM, the IC50 [6] is reported as 3000 nM and the IC50 [7] is reported as 3000 nM. It also gave an IC50 [8] of 40 µM and an IC50 [9] of 3000 nM.

B1: ribosomal large-subunit methyltransferase H (RlmH), wild type, His6-tagged (enzyme, E. coli, UniProt P0A8I8 2-155, looked up)
chain: KLQLVAVGTKMPDWVQTGFTEYLRRFPKDMPFELIEIPAGKRGKNADIKRILDKEGEQMLAAAGKNRIVTLDIPGKPWDTPQLAAELERWKLDGRDVSLLIGGPEGLSPACKAAAEQSWSLSALTLPHPLVRVLVAESLYRAWSITTNHPYHRE
notes: RlmH (YbeA) of E. coli, 155 amino acids; rlmH gene from ASKA clone JW0631 in pET24b; no cleavage of the tag is described; Limits 2-155 follow from 'first methionine is replaced' and '155 amino acids'; also called YbeA; WT; source: E. coli BLR(DE3), purified (nickel IMAC twice, SEC on Superdex75); not shown: His6, N-terminal, kept
With B1 the “stoichiometry N” value [10] was 2.

B2: RlmH H153F, His6-tagged (enzyme, E. coli, UniProt P0A8I8 2-155, looked up)
chain: B1 chain with H152F
notes: RlmH (YbeA) of E. coli, 155 amino acids; source: E. coli BLR(DE3), purified as the wild-type protein; not shown: His6, N-terminal, kept
With B2 the “stoichiometry N” value [10] was 2.

B3: RlmH R154A, His6-tagged (enzyme, E. coli, UniProt P0A8I8 2-155, looked up)
chain: B1 chain with R153A
notes: as for B2
B3 was tested, and the “stoichiometry N” value [10] was 2.

B4: RlmH Y152F, His6-tagged (enzyme, E. coli, UniProt P0A8I8 2-155, looked up)
chain: B1 chain with Y151F
notes: as for B2
In the case of B4, the “stoichiometry N” value [10] is reported as 2.
